Test results: article PMC2212970
Read-outs that look alike come from different tables or passages of the source.

What was measured:
Test in all cases: EMSA
[1] = target: T1, SLPI (secretory leucoprotease inhibitor) (UniProt P03973 26-132)
NF-kB p65 = NF-kB p65 (UniProt Q04206 1-551)
[2] = target: T1, SLPI (secretory leucoprotease inhibitor); remark: listed apart in the source

T1 sequence (P03973 26-132): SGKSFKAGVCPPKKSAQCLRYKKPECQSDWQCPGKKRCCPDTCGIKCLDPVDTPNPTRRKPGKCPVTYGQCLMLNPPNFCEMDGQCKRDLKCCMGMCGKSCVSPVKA
NF-kB p65, sequence (Q04206 whole entry): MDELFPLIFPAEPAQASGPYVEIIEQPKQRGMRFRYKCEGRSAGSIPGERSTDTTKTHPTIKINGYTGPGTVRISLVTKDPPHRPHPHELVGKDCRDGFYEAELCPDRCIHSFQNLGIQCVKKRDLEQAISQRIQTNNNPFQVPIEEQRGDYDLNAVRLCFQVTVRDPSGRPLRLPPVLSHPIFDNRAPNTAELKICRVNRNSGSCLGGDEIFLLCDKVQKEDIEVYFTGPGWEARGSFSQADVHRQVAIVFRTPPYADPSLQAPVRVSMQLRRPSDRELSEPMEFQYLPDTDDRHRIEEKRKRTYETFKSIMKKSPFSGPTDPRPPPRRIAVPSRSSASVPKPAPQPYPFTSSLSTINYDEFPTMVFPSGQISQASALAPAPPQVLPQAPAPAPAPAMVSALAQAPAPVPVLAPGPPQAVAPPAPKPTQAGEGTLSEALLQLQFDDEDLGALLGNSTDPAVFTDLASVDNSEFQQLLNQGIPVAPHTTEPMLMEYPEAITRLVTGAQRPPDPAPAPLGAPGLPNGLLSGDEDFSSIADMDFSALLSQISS

Row | Binder | binding result [1] | binding result (NF-kB p65) | binding result [2]
1 | GATA-1 consensus (dsDNA) DNA 1: AATTGGACCGTATCTCCC DNA 2: GGGAGATACGGTCCAATT | no binding |  | 
2 | NF-kB consensus WT (dsDNA) DNA 1: AGTTGAGGGGACTTTCCCAGGC DNA 2: GCCTGGGAAAGTCCCCTCAACT |  | binds | binds
3 | Sp-1 consensus (dsDNA) DNA 1: ATTCGATCGGGCGGGGCGAG DNA 2: CTCGCCCCGCCCGATCGAAT | no binding |  | 
4 | CREB consensus (dsDNA) DNA 1: AGAGATTGCCTGACGTCAGACAGCTAG DNA 2: CTAGCTGTCTGACGTCAGGCAATCTCT | no binding |  | 
5 | AP-1 consensus (dsDNA) DNA 1: CGCTTGATGAGTCAGCCGGAA DNA 2: TTCCGGCTGACTCATCAAGCG | binds |  | 
